Test results published in the DeepSol protein solubility set.

Experiment: soluble on expression in E. coli; label from the status in PepcDB or PDB records

Soluble on expression in E. coli, soluble:
MKIYYEHDADLGFILGKKVAVLGFGSQGHAHALNLKDSGVDVRVGLRKGSRSWEKAEAAGLRVLPVAEAVREADVVMVLLPDEKQAQVYREEVEPNLKEGGALAFAHGFNVHFGQIKPRKDLDVWMVAPKGPGHLVRSEYQKGSGVPALVAVHQDASGSAFPTALAYAKAIGAARAGVIATTFKDETETDLFGEQAVLCGGLTRLIRAGFETLVEAGYPPEMAYFETVHEVKLIVDLIYEAGLKGMRYSISNTAEYGDYTRGDLAVPLEETKRRMREILRQIQSGEFAREWMLENQVGSPVLEANRKRWAAHPIEEVGSRLRAMMPFLKARVMEEVG, MKPRQRQAAILEYLQKQGKCSVEELAQYFDTTGTTIRKDLVILEHAGTVIRTYGGVVLNKEESDPPIDHKTLINTHKKELIAEAAVSFIHDGDSIILDAGSTVLQIVPLLSRFNNITVMTNSLHIVNALSELDNEQTILMPGGTFRKKSASFHGQLAENAFEHFTFDKLFMGTDGIDLNAGVTTFNEVYTVSKAMCNAAREVILMADSSKFGRKSPNVVCSLESVDKLITDAGIDPAFRQALEEKGIDVIITGESNELEHHHHHH, MSLMDYGIDIWGNENFIIKNGKVCINYEKKPAIIDIVKELRDDGYKGPLLLRFPHLIQKQIENIYGNFNKARKEFGYKGGFNAVYPLKVNQYPGFVKNLVKLGKDYNYGLEAGSKAELLLAMAYNNEGAPITVNGFKDRELINIGFIAAEMGHNITLTIEGLNELEAIIDIAKERFKPKPNIGLRVRLHSAGVGIWAKSGGINSKFGLTSTELIEAVNLLKENKLLEQFTMIHFHLGSQITEIHPLKKALNEAGNIYTELRKMGAKNLKAINLGGGLAVEYSQFKNEKSRNYTLREYANDVVFILKNIAEQKKDLEPDIFIESGRFVAANHAVLIAPVLELFSQEYAENKLILKKQNPKLIDELYDLYKSIKPSNALEYLHDSIDHLESILTLFDLGYVDLQDRSNAEILTHLITKKAILLLGDKQNPADLLAIQDEVQERYLVNFSLFQSMPDFWGLEQNFPIMPLDRLDEEPTRSASIWDITCDSDGEISYSKDKPLFLHDVDVEKENYFLGFFLVGAYQEVLGMKHNLFTHPTEAIISINEKGYEVEGIIEAQSILDTLEDLDYDIHAIMDILNERISNSKLVNDKQKKHILGELYLFLNDNGYLKSIGVEGHHHHHH, AIASYCRQEGKDKIIFVTKEDHETPSSAELIADDPNDPFEEQGLILPNGDINWNCPCLGGMASGPCGEQFKSAFSCFHYSQEEIKGSDCLDQFRAMQECMQKYPELYPQEDDEDELEKEKQNKDEESSVTQSSDTKEESSS, MSLDTPTHLTLMVSGTAKMIYLPATLAQRLGYFRDEGLDVELLSQPAGVDAESELLTGYAQGVVGFYDHTIDLQTKGKEVRAIVVFSHVPGEAEVVSTRLPATVQSLHDLRGRTLGVTGLGSSTSFLTRHLMAQQGLGPGEYTMLPVGAEHSFVSALRSGRIDAGMTTDPTATRLIRNKEARMLLDLRTIESTRAALGGPYPAACLYVQTEWLEAHPELATKLARAFVRTLRYLRSHRAEDIAAHMPPEFRRDRPDVYMQALIAALPTFSDDGRMPADGPATVLRVLSTSNPNARDKHIDLSRTYTNRFVDQAKEGHHHHHH, MFDGEDLKKIFAMDGFLRNIEFEVSYISEGSIEIKVPLKENLMRVGDIMNGGAIMAISDAIGGLTVMTYGSVINQVTVNFNTEFIRPIGTGPVIFRSSMVRIGKNIAYVDVAAIDGNGQLCSKSMGTYYIYR, MASGDLVRYVITVMLHEDTLTEINELNNYLTRDGFLLTMTDDEGNIHELGTNTFGLISTQSEEEIRELVSGLTQSATGKDPEITITTWEEWNSNRK, MNGVYDVGGTDGLGPINRPADEPVFRAEWEKVAFAMFPATFRAGFMGLDEFRFGIEQMNPAEYLESPYYWHWIRTYIHHGVRTGKIDLEELERRTQYYRENPDAPLPEHEQKPELIEFVNQAVYGGLPASREVDRPPKFKEGDVVRFSTASPKGHARRARYVRGKTGTVVKHHGAYIYPDTAGNGLGECPEHLYTVRFTAQELWGPEGDPNSSVYYDCWEPYIELVDT, METAMSKGVITITDAEFESEVLKAEQPVLVYFWASWCGPCQLMSPLINLAANTYSDRLKVVKLEIDPNPTTVKKYKVEGVPALRLVKGEQILDSTEGVISKDKLLSFLDTHLNNN

Soluble on expression in E. coli, not soluble:
MGSDKIHHHHHHMIIDTSCYPTNLVDLAWRHDGEPFSGERLIQMMDGPFTINGKPRRIDKAFIQPPQGNTIYTWTDGEKSGSESIDAYMAYTVEMVKKYPDRFIGCFVYNPRCGVQNGVNAIEHYVKTLGFKMVQFQANMHAYRPDRALDWLRPALQKCAELGVLVKLHTGDGPYSIPTEWVPMMKEFPTVNFIMAHFGVQTGGVYCFEPFQMAMDMPNVYCESGWCLQSRIVEFAKVLPKHKILFGSDTPPNEPGMWLRLLEVLCFEPPQGLNLDEDTLEDYLGNNVARMIGLEPTPVPRTLEEARARLAA, SLQQSAKKNAAPAPAAQPAPAPTQPQADGAQQAGWVVRCTSVSRDAPLECAMEQNAVLTKTGQTIVLINIRIAPDTRTPVALLQLPLGLNLPIGAKLQVDEGKTVDLQIQTCENRGCYASTPIAADLLAALRSGKQLKVSFQNMAKETIAIPMPLGDFAAAYDKIK, MVDMKTTHTSLPFAGHTLHFVEFDPANFCEQDLLWLPHYAQLQHAGRKRKTEHLAGRIAAVYALREYGYKCVPAIGELRQPVWPAEVYGSISHCGATALAVVSRQPIGVDIEEIFSAQTATELTDNIITPAEHERLADCGLAFSLALTLAFSAKESAFKASEIQTDAGFLDYQIISWNKQQVIIHRENEMFAVHWQIKEKIVITLCQHD, MKALTLKVFYENSDPNKSSSKQAKYLAIADALRKAIRERQIAPTEALPSARKLAQQLSVNRHTIMAALAELVAQGWVEVRERSGYRVVENLPIQGSRTINKVAKTPQSFDWKFRVKQTFAVTPKVKASEYPYNFSGGQPDIRKFPFDEFKSHFSQTCQRPKIDDLSYGDSRGEAELIEEIATYLRRVRSITDKELMICNGSQEALYMISQLLLQPGDKVAVEQLGYPPAWAAFERTGATLIAVKQDERGINPEHLAQVFAKGKVKLLYLTPLHQYPTTVSLDISRRMQIYQLAVQYGVAIVEDDYDHEFHYDSQPIAPMAADDPAGLVIYISTFSKLMFGGARIGYVVANNALIEQVAAYKMVMNHKCNVLVQQAVAKWMQQGGFEAHLRRMTRLYQKRRDFMVQQLRSFQDKGLPIHFEVPAGGMAIWLDTGKSIIGLKEKLLPQQVYLQTEVEFSRFNELPDDLPRTKYRFIRLGFAAMNEAEVTQGLDIVMNTLYGLVSE, MTMTPVSDPIPIGNQEDKENIEDAENTMNISPACDRILVDHQYTRDVVITGKCSSLTYKKA, MGSDKIHHHHHHMLPTLDGLPFHIAKAQGIYDSLGLDLTILSFNSAYDRDAAFQFKSMDGMITDYPSAVTLQAIHHTDLGIILKHDGYFCFIVSKESGINQLQELKEKNIAVSHNTIIEYATGQLLNKAGISQAEVNKPEIAQLPLRLQMLQYDQIDASFLPDPAASIAMNARHRSLISTQELGIDFTVTAFSREAINEKRREIELLITGYNLGIDYIKMHPQKEWKQVLIEIGVPENLTGLIALPVYRKAERPSADALDKAVTWLKTNNRIPQTYSGYKSLIDTTFIKTNSTTIK, MGSDKIHHHHHHMKAYYHLPGLFEFYELYKEFLPLYRKHREYFYDWCDIGSIYGAPADCIWGGGRVGFGEHDLKEVLKLMQEYGISARLTFSNSLLTKEHLPDKKCNELCRIFDIGRDNERSRGFGNGIIIYSDILLDYIKENYPDFYFVSSTTKVLTDFSEFKNELNREEFRYVVPDFRLNKSFDNLKALSQHQKEKVEFLCNECCWFGCTDRKKCYETVSRKNLGVDCPEHYCVAPDSGQGYLFSKAMENPGFIGVYDIKNTYLPMGFSNFKIEGRGLGSAMILEFLLYYMTKPQYQIHVREHIYLDNMLDLF, MAAAKVALTKRADPAELRTIFLKYASIEKNGEFFMSPNDFVTRYLNIFGESQPNPKTVELLSGVVDQTKDGLISFQEFVAFESVLCAPDALFMVAFQLFDKAGKGEVTFEDVKQVFGQTTIHQHIPFNWDSEFVQLHFGKERKRHLTYAEFTQFLLEIQLEHAKQAFVQRDNARTGRVTAIDFRDIMVTIRPHVLTPFVEECLVAAAGGTTSHQVSFSYFNGFNSLLNNMELIRKIYSTLAGTRKDVEVTKEEFVLAAQKFGQVTPMEVDILFQLADLYEPRGRMTLADIERIAPLEEGTLPFNLAEAQRQKASGDSARPVLLQVAESAYRFGLGSVAGAVGATAVYPIDLVKTRMQNQRSTGSFVGELMYKNSFDCFKKVLRYEGFFGLYRGLLPQLLGVAPEKAIKLTVNDFVRDKFMHKDGSVPLAAEILAGGCAGGSQVIFTNPLEIVKIRLQVAGEITTGPRVSALSVVRDLGFFGIYKGAKACFLRDIPFSAIYFPCYAHVKASFANEDGQVSPGSLLLAGAIAGMPAASLVTPADVIKTRLQVAARAGQTTYSGVIDCFRKILREEGPKALWKGAGARVFRSSPQFGVTLLTYELLQRWFYIDFGGVKPMGSEPVPKSRINLPAPNPDHVGGYKLAVATFAGIENKFGLYLPLFKPSVSTSKAIGGGP, MRTVVVIPTYNERDTIERLINDVLAQDKDIHVLVVDDNSPDGTGEIVDRLSEGKGRVHVLHRPGKMGLGSAYRQGFAAALAMDADFIVEMDADYSHDPATLPRFLEAMEGCDLVIGSRYLNGISVVNWPLRRLMLSYFANWYTRLITGLRIMDCTSGFKCFRRRVIESIDMSTIRSDGYSFQIEMNYRCVEKGFQVREIPIIFIDRRSGSSKMSKKIVREAVFMVWKLKLGSVFGALFRLEHHHHHH, MKLTKTLLTTALFGASIFSFQSTAWADTPEQQFQQGLTAYEQSDYQTAFKLWLPMAEQGYAQAQGGLGMMYERGLGVKQDDFKAVNWYRKAAEQGDADAQLNLGAMYAIGHGVKQDGVEAVKWFRKAAEQGNAKAQNGLGMMYRGRLGIKQDYFKAVKWYRKAAEQGYGGAQVMLGFSYLSGKGVQVNKSLAKEWFGKACDNGEQVGCEYYSKLNRGER, MAHHHHHHMLRQCERLIVQLSQQVLEQEKDIHSLRAALHSSQNRRRRHRQRGGDEKRERAAAVSMAESFSVSTERRQHHHTHHITVKAPTQMTMTHEDSRLRLTLPSSMTPQVSPIHLSGDAGVDSATGPYPEAAVVAPHSPQSSGAGSAVPSPTRSVGKSSGEHGMAAALAFPSIVCDVSSFSDKTNVGLTPSAACDHPPSGESATADGLWASSLLSEPERSSSSSSLARHRRNTAQLTRNAQFETPRVNLDNQDAMSYLLCIFSSAKSTREADGGATAAMAEAGEAAPCGREHRGGAGVRSPNAPLQQQGEHVARRLFHLDPVDENEGSESGNEHSSGGAVSDYDRPAARRPFLPPLRDKRGDGDGSAPPNHKTCGAFDEDDAFLQERYARIVACALAAEFAASTTLVEEDEVEQQRGCKTGPRAPTAAWCRTTSRRDHSASATVSELLRLFTFQPATRHQPYSDGKGL, MNNDLAPHLDIALRHSPPGLAATPIPRVDICVGQGFTEKAPCLYRSMICFILQGSKRVAINDNLLSYDSEHYLISALDLPLIGQILDAEDGQPYVAVSLVLDPALLAVLAASMPAVREREQKGIGITINPMSAPLRDTLLRLLSLLDTPDDIPILAPMVERELLYRLLQGPQGRLL, MRPNYTVSSSGTNKGSVLAVCNTTYYKSNKLISKNEITLYKGFRSLSTNHKIETIVHEFGHGFGLGHVKTKNAIMLDKGFINKTKPQTDDFNGIKALYKLEHHHHHH, MEIKRQQEIVEAYHYDMRVPDSEVETDLRVSFSPIEVEEENYPENSSALVARLEFRIVFDEFVLSGAISQINHIIDRKIEKQEDISQEEVDELVRPLFSIVERLSYEVTEIALDRPGVQLNFQQSEEA
